Source: patent US9289490B2, “Combinations and uses thereof” (MORPHOSYS AG, priority 2010, dated 2016)
“And” between values parts separate entries of the source, which are not always exact repeats. Equal entries are not always repeated. Where two headings read alike, the source gives them in different places. Marks after values point to notes of the source that are not given here.

Assays:
[1] = test system: AMO-1 cells; assay: ADCC with human PBMCs, flow cytometry (CalceinAM/PI); type: cell-based
Protocol: For Tables 3b-c, “Theoretical Combination” represents the addition of the values of MOR202 alone and the values of LEN alone. The normalized data of Table 3b is calculated as follows. Therefore, the specific killing values of Table 3b are calculated by subtracting the values of the controls. Then the specific killing values are compared to the MOR202 group, which is set as 1.
The constant m determines the shape of the dose-effect curve. We used Excel Fit software to carry out a linear regression calculation to estimate the parameters m and D50.
The CI-isobol method provides a quantitative assessment of synergism between drugs. A combination index (CI) is estimated from dose-effect data of single and combined drug treatments. […] Formally, the combination index (CI) of a combined drug treatment is defined as CI=D1/Dx1+D2/Dx2
The data is analysed in the following way: Antagonistic(AB)/C<(A/C)×(B/C) Additive(AB)/C=(A/C)×(B/C) Synergistic(AB)/C>(A/C)×(B/C) where A is the treatment with LEN alone; B is the treatment with MOR202 alone; C is response to the treatment vehicle; AB is combination of treatments A and B.

[2] = test system: NCI-H929 human multiple myeloma cells; assay: NCI-H929 bone lysis SCID mouse MM model, MOR202 and LEN (MicroCT); type: in vivo, SCID mice; design: Trabecular Bone Volume (Tb · BV), individual mouse / Trabecular Bone Volume (Tb · BV), Mean: unit not given here
Protocol: 63 SCID mice were inoculated on Day (−7) orthotopically into the right tibia with 2.5×10^6 NCI-H929 MM cells (in 5 μL) in order to induce bone lysis. Lenalidomide (Groups A and D) and Vehicle Control (Group C) treatments started on Day (−1). MOR202 treatments (Groups B and D) started on Day 0. Treatment continued for 6 weeks.
MicroCT Scan was used to assess bone lysis and included […] analysis comprising Total Bone Volume (TBV), Trabecular Bone Volume (Tb.BV), Trabecular Pattern Factor (Tb.Pf) and Structure Model Index (SMI). Table 10 defines each of these parameters.

[3] = test system: RAMOS cells; assay: RAMOS non-Hodgkin tumor SCID mouse survival model, MOR202 and lenalidomide; type: in vivo, SCID mice
Protocol: Sixty-eight female SCID mice were pre-treated with Cyclophosphamide (75 mg/kg, i.p., twice daily) for two days prior to RAMOS cell inoculation (Day −5 and −4). On the day of inoculation (Day −3), all mice were inoculated with 1×10^6 RAMOS cells each intravenously into the tail vein. Sixty-four of the mice were randomised by body weight into eight groups of eight.
The study continued for 98 days and the measured endpoint was survival.

[4] = test system: NCI-H929 MM cells; assay: NCI-H929 bone lysis SCID mouse model, MOR202 and BOR (MicroCT); type: in vivo, SCID mice; design: Trabecular Bone Volume (Tb · BV), individual mouse / Trabecular Bone Volume (Tb · BV), Average: unit not given here
Description: 63 SCID mice were inoculated on Day (−7) intra-tibially with 2.5×10^6 NCI-H929 MM cells in order to induce bone lysis. Bortezomib (Groups A and AB) and Vehicle Control (Group C) treatments started on Day (−1). MOR202 treatments (Groups B and AB) started on Day 0. Treatment continued for 6 weeks.
MicroCT Scan was used to assess bone lysis and included a 3-dimensional analysis comprising Total Bone Volume (TBV), Trabecular Bone Volume (Tb.BV), Trabecular Pattern Factor (Tb.Pf) and Structure Model Index (SMI). Table 10 above defines each of these parameters.

[5] = test system: RAMOS cells; conditions: BOR 0.6 mg/kg i.p., MOR202 1 mg/kg i.v.
Protocol: Fifty-five female SCID mice were pre-treated with Cyclophosphamide (75 mg/kg, i.p., twice daily) for two days prior to RAMOS cell inoculation (Day −5 and −4). On the day of inoculation (Day −3), all fifty-five mice were inoculated with 1×10^6 RAMOS cells each (in 100 μL) intravenously into the tail vein. Forty-eight of the mice were randomised by body weight into six groups of eight.

[6] = test system: NCI-H929 cells; assay: ADCC with human PBMCs, flow cytometry (CalceinAM/PI); conditions: for % dead cells (raw data, Table 7a), Exp. 2 and 3 / % dead cells (raw data, Table 7a), Exp. 1: PBMCs and NCI-H929 cells treated with LEN before MOR202; for % dead cells (raw data, Table 7a), Exp. 2 and 3 / % dead cells (raw data, Table 7a), Exp. 1 / % dead cells (raw data, Table 8a), Exp. 2 and 3 / % dead cells (raw data, Table 8a), Exp. 1: MOR03207 15 μg/ml; for % dead cells (raw data, Table 8a), Exp. 2 and 3 / % dead cells (raw data, Table 8a), Exp. 1: only effector cells treated with LEN before MOR202
Protocol: PBMC's were isolated by density gradient centrifugation of freshly isolated human blood. Isolated blood from different donors were layered on a defined volume of Biocoll (Biochrome AG; CAT No.:L6115; LOT No.:1050T) in a Falcon tube and centrifuged at 380 g. The PBMCs were isolated and supplemented with RPMI medium.
Cell suspensions were further incubated for 4 h at 37° C. To detect dead AMO-1 cells, cell suspensions were challenged with propidium iodide (PI) and subsequently analyzed in flow cytometry. Target cells were separated via gating of CalceinAM positive cell populations, and cells killed via ADCC were quantified.
Single and combination doses of 5 μM LEN and 15 μg/ml of MOR03207 and 0.2 or 0.07 μg/ml MOR202 were used.
Single and combination doses of 5 μM LEN and 15 μg/ml of MOR03207 and 0.2* or 0.07 μg/m MOR202 were used.

[7] = LEN 50 mg/kg p.o. once daily, MOR202 3 mg/kg i.p. 3 times weekly, 6 weeks, lower = less bone lysis, listed as MOR03087
[8] = group mean of 10 mice, LEN 50 mg/kg p.o., MOR202 3 mg/kg i.p., 6 weeks
[9] = Bortezomib 0.6 mg/kg i.p. twice per week, MOR202 3 mg/kg i.p. three times per week, 6 weeks, lower = less bone lysis
[10] = group average of 10 mice, Bortezomib 0.6 mg/kg i.p., MOR202 3 mg/kg i.p., 6 weeks

B1: MOR202: anti-CD38 antibody whose amino acid sequence is provided in FIG. 11; IgG1 (antibody, V domains shown)
VH: QVQLVESGGGLVQPGGSLRLSCAASGFTFSSYYMNWVRQAPGKGLEWVSGISGDPSNTYYADSVKGRFTISRDNSKNTLYLQMNSLRAEDTAVYYCARDLPLVYTGFAYWGQGTLVTVSS
VL: DIELTQPPSVSVAPGQTARISCSGDNLRHYYVYWYQQKPGQAPVLVIYGDSKRPSGIPERFSGSNSGNTATLTISGTQAEDEADYYCQTYTGGASLVFGGGTKLTVLGQ
Normalized specific killing, MOR202 treatment group set as 1 (Table 3b) ([1]; PBMCs and AMO-1 cells treated with LEN, LEN 10 μM, MOR202 and MOR03207 15 μg/ml, controls subtracted, Exp. 1-3): 1.0
Normalized specific killing, theoretical combination set as 1 (Table 3c) ([1]; PBMCs and AMO-1 cells treated with LEN, MOR202 0.42 μg/ml, LEN 5 μM, Experiment 1-3): 0.9 and 0.6
Normalized specific killing, theoretical combination set as 1, AVERAGE (Table 3c) ([1]; PBMCs and AMO-1 cells treated with LEN, MOR202 0.42 μg/ml, LEN 5 μM, average of 3 experiments): 0.8
Normalized specific killing, MOR202 treatment group set as 1 (Table 4b) ([1]; only effector cells treated with LEN, LEN 10 μM, MOR202 and MOR03207 15 μg/ml, Exp. 1-3): 1.0
Normalized specific killing, theoretical combination set as 1 (Table 4c) ([1]; only effector cells treated with LEN, MOR202 0.42 μg/ml, LEN 5 μM, Experiment 1-3): 0.8 and 1.2 and 0.7
Normalized specific killing, theoretical combination set as 1, AVERAGE (Table 4c) ([1]; only effector cells treated with LEN, MOR202 0.42 μg/ml, LEN 5 μM, average of 3 experiments): 0.9
Structure Model Index (SMI), individual mouse [2, 7]: 2.386 and 1.818 and 2.423 and 2.450 and 1.860 and 2.461 and 2.558 and 2.247 and 2.318 and 2.275
Trabecular Pattern Factor (Tb · Pf), individual mouse [2, 7]: 27.049 mm^−1 and 15.631 mm^−1 and 27.631 mm^−1 and 27.523 mm^−1 and 17.887 mm^−1 and 21.405 mm^−1 and 26.345 mm^−1 and 20.327 mm^−1 and 25.843 mm^−1 and 22.402 mm^−1
Structure Model Index (SMI), Mean [2, 8]: 2.28
Total Bone Volume (TBV), Mean [2, 8]: 2.467 mm^3
Trabecular Bone Volume (Tb · BV), Mean [2, 8]: 0.323
Trabecular Pattern Factor (Tb · Pf), Mean [2, 8]: 23.204 mm^−1
Structure Model Index (SMI), Mean ([2]; group mean of 10 mice, LEN 50 mg/kg p.o., MOR202 3 mg/kg i.p., 6 weeks, listed as MOR03087): 2.280
Reduction of bone lysis compared to vehicle control ([2]; non-inoculated tibia = 0%, vehicle = 100% bone lysis, MOR202 alone 12 mg/kg, LEN alone 50 mg/kg, combination 3 mg/kg MOR202 and 50 mg/kg LEN): up to 55%
Number of mice alive at study termination (day 98) ([3]; LEN 100 mg/kg (Table 14) p.o., MOR202 1 mg/kg i.v.): 0/8
Day of death (post-inoculation) Mean ([3]; LEN 100 mg/kg (Table 14) p.o., MOR202 1 mg/kg i.v. twice weekly, study 98 days): 49.6 days
% ILS (based on median death day) ([3]; LEN 100 mg/kg (Table 14) p.o., MOR202 1 mg/kg i.v., vs vehicle control): 155%
Day of death (post-inoculation) Median ([3]; LEN 100 mg/kg (Table 14; Table 13: 50 mg/kg) p.o. once daily, MOR202 1 mg/kg i.v. twice weekly, study 98 days): 51 days
Structure Model Index (SMI), individual mouse [4, 9]: 2.546 and 2.079 and 2.296 and 2.429 and 1.871 and 2.193 and 2.368 (2×) and 2.436 and 2.511
Trabecular Pattern Factor (Tb · Pf), individual mouse [4, 9]: 27.363 mm^−1 and 19.479 mm^−1 and 21.858 mm^−1 and 23.814 mm^−1 and 16.347 mm^−1 and 19.748 mm^−1 and 25.212 mm^−1 and 21.276 mm^−1 and 24.031 mm^−1 and 25.056 mm^−1
Structure Model Index (SMI), Average [4, 10]: 2.31
Total Bone Volume (TBV), Average [4, 10]: 1.988 mm^3
Trabecular Bone Volume (Tb · BV), Average [4, 10]: 0.296
Trabecular Pattern Factor (Tb · Pf), Average [4, 10]: 22.418 mm^−1
Reduction of bone lysis compared to vehicle control ([4]; non-inoculated tibia = 0%, vehicle = 100% bone lysis, MOR202 alone 12 mg/kg, BOR alone 0.6 mg/kg, combination 3 mg/kg MOR202 and 0.6 mg/kg BOR): up to 55%
Number of mice alive at study termination (day 98) [5]: 0/8
Day of death (post-inoculation) Mean ([5]; study 98 days): 43.6 days
Day of death (post-inoculation) Median ([5]; study 98 days): 43.5 days
% ILS (based on median death day) ([5]; vs vehicle control): 112%
% dead cells (raw data, Table 7a), Exp. 2 and 3 ([6]; LEN 5 μM, MOR202 0.07 μg/ml): 32.54 % dead cells and 43.08 % dead cells
% dead cells (raw data, Table 7a), Exp. 1 ([6]; LEN 5 μM, MOR202 0.2 μg/ml (*)): 30.64* % dead cells
Normalized specific killing, fractional product combination set as 1 (Table 7b), Exp. 2 and 3 ([6]; PBMCs and NCI-H929 cells treated with LEN, LEN 5 μM, MOR202 0.07 μg/ml): 0.45 and 0.58
Normalized specific killing, fractional product combination set as 1 (Table 7b), Exp. 1 ([6]; PBMCs and NCI-H929 cells treated with LEN, LEN 5 μM, MOR202 0.2 μg/ml (*)): 0.42*
Normalized specific killing, AVERAGE (Table 7b) ([6]; PBMCs and NCI-H929 cells treated with LEN, LEN 5 μM, MOR202 0.2 or 0.07 μg/ml, average of 3 experiments): 0.48
% dead cells (raw data, Table 8a), Exp. 2 and 3 ([6]; LEN 5 μM, MOR202 0.07 μg/ml): 53.74 % dead cells and 47.00 % dead cells
% dead cells (raw data, Table 8a), Exp. 1 ([6]; LEN 5 μM, MOR202 0.2 μg/ml (*)): 26.60* % dead cells
Normalized specific killing, fractional product combination set as 1 (Table 8b), Exp. 2 and 3 ([6]; only effector cells treated with LEN, LEN 5 μM, MOR202 0.07 μg/ml): 0.97 and 0.91
Normalized specific killing, fractional product combination set as 1 (Table 8b), Exp. 1 ([6]; only effector cells treated with LEN, LEN 5 μM, MOR202 0.2 μg/ml (*)): 1.09*
Normalized specific killing, AVERAGE (Table 8b) ([6]; only effector cells treated with LEN, LEN 5 μM, MOR202 0.2 or 0.07 μg/ml, average of 3 experiments): 0.99

B2: MOR03207: binds lysosyme, and is used as isotype control, as it is IgG1 (SEQ ID NO: 8, 9) (antibody, V domains shown)
VH: QVQLQQSGPGLVKPSQTLSLTCAISGDSVSSNSAAWSWIRQSPGRGLEWLGRIYYRSKWYNDYAVSVKSRITINPDTSKNQFSLQLNSVTPEDTAVYYCARLDHRYHEDTVYPGMDVWGQGTLVTVSS
VL: DIELTQPPSVSVAPGQTARISCSGDNLPAYTVTWYQQKPGQAPVLVIYDDSDRPSGIPERFSGSNSGNTATLTISGTQAEDEADYYCASWDPSSGVVFGGGTKLTVLGQ
modifications: /mol_type=“protein” /note=“variable heavy chain” /organism=“synthetic construct”; /mol_type=“protein” /note=“variable light chain” /organism=“synthetic construct”
% dead cells, MOR03207 15 μg/ml + DMSO (Table 4a) ([1]; control group of the effector-only experiments, Exp. 1-3): 15.77 % dead cells and 15.97 % dead cells and 11.45 % dead cells
% dead cells (raw data, Table 4a) ([1]; only PBMCs (effector cells) treated with LEN before MOR202, LEN 10 μM, MOR202 and MOR03207 15 μg/ml, Exp. 1-3): 17.42 % dead cells and 16.17 % dead cells and 12.17 % dead cells
% dead cells (raw data, Table 7a), Exp. 2 and 3 ([6]; LEN 5 μM, MOR202 0.07 μg/ml): 14.09 % dead cells and 19.20 % dead cells
% dead cells (raw data, Table 7a), Exp. 1 ([6]; LEN 5 μM, MOR202 0.2 μg/ml (*)): 17.81 % dead cells
% dead cells, MOR03207 (15 μg/ml) + DMSO (Table 7a) ([6]; control group, PBMCs and NCI-H929 cells LEN-treated series, Exp. 1-3): 13.74 % dead cells and 18.27 % dead cells and 20.26 % dead cells
% dead cells, MOR03207 (15 μg/ml) + DMSO (Table 8a) ([6]; control group, effector-only series, Exp. 1-3): 24.43 % dead cells and 19.52 % dead cells and 24.16 % dead cells
% dead cells (raw data, Table 8a), Exp. 2 and 3 ([6]; LEN 5 μM, MOR202 0.07 μg/ml): 27.10 % dead cells and 23.19 % dead cells
% dead cells (raw data, Table 8a), Exp. 1 ([6]; LEN 5 μM, MOR202 0.2 μg/ml (*)): 17.07 % dead cells
